Consider one substance from patent US20260258092A1.

Experiment [1] concerns the target dAb, a domain antibody comprising the variable light chain. The experiment can be described thus: frontal analysis on a membrane disc, run 1.
Experiment [2] shares this target. As to the kind of experiment: frontal analysis on a membrane disc, run 2.
Experiment [3] deals with Trastuzumab. The experiment can be described thus: frontal analysis on a membrane disc, load at 10 mL/min, run 1.
Experiment [4] has as its target Trastuzumab. The experiment can be described thus: frontal analysis on a membrane disc, load at 10 mL/min, run 3.
The target in experiment [5] is Trastuzumab. The experiment can be described thus: frontal analysis on a membrane disc, blank run between runs, run 1.
Experiment [6] addresses Trastuzumab. As to the kind of experiment: frontal analysis on a membrane disc, blank run between runs, run 2.
Experiment [7] concerns the target Trastuzumab. As to the kind of experiment: frontal analysis on a membrane disc, blank run between runs, average.
The target in experiment [8] is dAb, a domain antibody comprising the variable light chain. The experiment can be described thus: frontal analysis on a membrane disc, run 1, average of Test 1 and Test 2.
The target is the same in experiment [9]. The experiment can be described thus: frontal analysis on a membrane disc, run 2, average of Test 1 and Test 2.
Experiment [10] deals with Trastuzumab. As to the kind of experiment: frontal analysis on a membrane disc, load at 10 mL/min, average of runs 1-4.
Experiment [11] has as its target dAb, a domain antibody comprising the variable light chain. As to the kind of experiment: frontal analysis on a membrane disc, re-run after CIP with 0.1 M NaOH, average. To be noted: test 1, without preceding CIP wash.
The target in experiment [12] is Trastuzumab. The experiment can be described thus: frontal analysis on a membrane disc, load at 10 mL/min, run 2 (no blank run before).
Experiment [13] deals with Trastuzumab. As to the kind of experiment: frontal analysis on a membrane disc, load at 10 mL/min, run 4 (no blank run before).

Values joined by “and” are separate entries in the source; they are usually repeats but may differ in a detail not shown here. Identical values can stand only once.

As for “kappa light chain-binding ligand (multimer of alkali-stabilized Finegoldia magna Protein L domains) covalently coupled to a convection-based fibrous support (prototype separation matrix) (designed binder)”, the Qb10% (dynamic binding capacity at 10% breakthrough) in [1] is 12.8 mg/mL and 13 mg/mL; in [2], 9.41 mg/mL and 10.5 mg/mL; with Trastuzumab [3] it was 17.3 mg/mL and 22 mg/mL; with Trastuzumab [4], 15.9 mg/mL and 21.8 mg/mL; in the experiment with Trastuzumab [5], 15.4 mg/mL and 21.4 mg/mL; with Trastuzumab [6] it was 15.5 mg/mL and 21.4 mg/mL. The Qb10% (dynamic binding capacity at 10% breakthrough) was 12.3 mg/mL and 17.8 mg/mL in the experiment with Trastuzumab [12]; 10.8 mg/mL and 16.8 mg/mL with Trastuzumab [13]. Besides, the Qb10% (average of runs) is 15.4 mg/mL and 21.4 mg/mL with Trastuzumab [7]; 19.6 mg/mL and 14.1 mg/mL with Trastuzumab [10]; 10.2 mg/mL in experiment [11]. The Average of Qb10% was found to be 12.9 mg/mL in [8] and 9.98 mg/mL in [9].
